Measurements taken from article PMC12669767.
Substitutions are numbered along the chain they refer to.

Legend:
Assay in all cases: co-immunoprecipitation of ALFA-TXNIP, label-free quantitative interactome (mass spectrometry)
[1] = target: T1, HECW1, endogenous in HEK293T, Q76N89; conditions: chain shown with the change, immunoprecipitated from HEK293T cells, n = 3, read off a plot
T1 chain: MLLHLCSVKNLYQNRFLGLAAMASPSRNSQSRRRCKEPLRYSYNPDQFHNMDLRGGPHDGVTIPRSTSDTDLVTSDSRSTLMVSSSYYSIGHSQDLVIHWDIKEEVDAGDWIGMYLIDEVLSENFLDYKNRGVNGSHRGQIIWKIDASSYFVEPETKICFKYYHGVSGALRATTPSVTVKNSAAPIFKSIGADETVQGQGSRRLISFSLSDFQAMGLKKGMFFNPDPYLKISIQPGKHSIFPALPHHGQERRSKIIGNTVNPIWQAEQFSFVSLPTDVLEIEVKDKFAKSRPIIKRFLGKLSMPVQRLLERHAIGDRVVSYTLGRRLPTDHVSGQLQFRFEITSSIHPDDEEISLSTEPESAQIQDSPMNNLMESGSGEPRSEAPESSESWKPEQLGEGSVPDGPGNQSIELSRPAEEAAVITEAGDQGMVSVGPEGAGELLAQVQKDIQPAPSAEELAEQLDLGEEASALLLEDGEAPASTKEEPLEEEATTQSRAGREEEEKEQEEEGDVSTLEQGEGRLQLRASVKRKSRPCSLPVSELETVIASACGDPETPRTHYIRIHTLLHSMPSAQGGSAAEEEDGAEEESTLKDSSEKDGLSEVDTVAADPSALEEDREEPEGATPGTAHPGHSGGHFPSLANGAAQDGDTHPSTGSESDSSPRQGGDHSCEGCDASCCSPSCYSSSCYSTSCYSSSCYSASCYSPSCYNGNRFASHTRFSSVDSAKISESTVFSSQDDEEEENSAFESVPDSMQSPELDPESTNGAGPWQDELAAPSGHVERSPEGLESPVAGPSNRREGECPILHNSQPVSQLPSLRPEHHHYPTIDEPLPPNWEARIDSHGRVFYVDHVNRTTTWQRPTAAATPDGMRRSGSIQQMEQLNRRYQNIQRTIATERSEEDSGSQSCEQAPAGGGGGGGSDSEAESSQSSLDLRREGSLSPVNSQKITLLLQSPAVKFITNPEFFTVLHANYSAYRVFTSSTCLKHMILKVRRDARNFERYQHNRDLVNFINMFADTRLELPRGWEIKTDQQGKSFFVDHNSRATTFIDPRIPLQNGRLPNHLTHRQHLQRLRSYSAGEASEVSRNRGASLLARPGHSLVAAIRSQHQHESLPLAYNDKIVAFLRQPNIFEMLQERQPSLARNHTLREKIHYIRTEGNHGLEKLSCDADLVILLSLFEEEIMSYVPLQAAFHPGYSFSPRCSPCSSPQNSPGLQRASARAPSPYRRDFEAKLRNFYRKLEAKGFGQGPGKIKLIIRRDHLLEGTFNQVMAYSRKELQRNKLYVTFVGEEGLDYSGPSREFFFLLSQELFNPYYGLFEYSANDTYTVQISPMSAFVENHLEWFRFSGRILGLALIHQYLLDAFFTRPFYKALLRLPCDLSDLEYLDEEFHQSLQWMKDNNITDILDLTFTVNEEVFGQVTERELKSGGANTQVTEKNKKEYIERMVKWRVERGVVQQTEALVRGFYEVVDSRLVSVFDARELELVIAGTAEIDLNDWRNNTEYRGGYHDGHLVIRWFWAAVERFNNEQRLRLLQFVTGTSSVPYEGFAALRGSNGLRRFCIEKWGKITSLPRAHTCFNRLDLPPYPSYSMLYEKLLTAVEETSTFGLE

[2] = target: ITCH, endogenous in HEK293T, Q96J02; conditions: chain shown with the change, immunoprecipitated from HEK293T cells, n = 3, read off a plot; for response (normalized abundance): abundances normalized to unspecific background binding to empty beads, scatter plot
Chain of ITCH, endogenous in HEK293T, Q96J02 (Q96J02 whole entry): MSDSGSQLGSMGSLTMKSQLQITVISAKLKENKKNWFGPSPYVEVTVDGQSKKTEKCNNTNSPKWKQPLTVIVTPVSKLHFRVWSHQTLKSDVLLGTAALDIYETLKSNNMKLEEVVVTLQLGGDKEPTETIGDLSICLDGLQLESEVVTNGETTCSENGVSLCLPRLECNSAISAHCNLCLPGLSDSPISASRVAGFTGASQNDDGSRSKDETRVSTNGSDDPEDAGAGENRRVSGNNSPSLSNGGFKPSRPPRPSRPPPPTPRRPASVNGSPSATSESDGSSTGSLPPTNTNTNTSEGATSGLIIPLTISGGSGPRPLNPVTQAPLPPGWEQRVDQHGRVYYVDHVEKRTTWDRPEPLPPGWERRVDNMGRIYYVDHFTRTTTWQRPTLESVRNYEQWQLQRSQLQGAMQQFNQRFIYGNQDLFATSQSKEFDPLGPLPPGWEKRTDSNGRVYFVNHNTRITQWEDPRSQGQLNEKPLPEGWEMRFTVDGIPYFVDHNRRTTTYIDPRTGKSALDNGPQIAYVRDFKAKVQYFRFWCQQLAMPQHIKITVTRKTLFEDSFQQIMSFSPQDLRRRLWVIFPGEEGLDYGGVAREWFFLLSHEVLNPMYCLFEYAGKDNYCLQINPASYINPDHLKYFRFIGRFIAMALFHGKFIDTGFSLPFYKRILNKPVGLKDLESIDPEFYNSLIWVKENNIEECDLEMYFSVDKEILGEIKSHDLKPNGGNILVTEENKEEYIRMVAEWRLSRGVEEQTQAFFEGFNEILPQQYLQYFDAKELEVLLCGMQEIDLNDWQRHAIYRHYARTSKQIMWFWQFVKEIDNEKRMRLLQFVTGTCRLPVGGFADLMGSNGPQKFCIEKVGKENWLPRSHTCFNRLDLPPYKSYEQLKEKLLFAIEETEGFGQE

[3] = target: WWP1, endogenous in HEK293T, Q9H0M0; conditions: chain shown with the change, immunoprecipitated from HEK293T cells, n = 3, read off a plot; for response (normalized abundance): abundances normalized to unspecific background binding to empty beads, scatter plot

B1: ALFA-tagged TXNIP (thioredoxin interacting protein), expressed in HEK293T, Q9H3M7 PPCY331AACA (protein)
chain: MVMFKKIKSFEVVFNDPEKVYGSGEKVAGRVIVEVCEVTRVKAVRILACGVAKVLWMQGSQQCKQTSEYLRYEDTLLLEDQPTGENEMVIMRPGNKYEYKFGFELPQGPLGTSFKGKYGCVDYWVKAFLDRPSQPTQETKKNFEVVDLVDVNTPDLMAPVSAKKEKKVSCMFIPDGRVSVSARIDRKGFCEGDEISIHADFENTCSRIVVPKAAIVARHTYLANGQTKVLTQKLSSVRGNHIISGTCASWRGKSLRVQKIRPSILGCNILRVEYSLLIYVSVPGSKKVILDLPLVIGSRSGLSSRTSSMASRTSSEMSWVDLNIPDTPEAAACAMDVIPEDHRLESPTTPLLDDMDGSQDSPIFMYAPEFKFMPPPTYTEVDPCILNNNVQ
**Q.** Which results are given for B1?
**A.** other: log2 PPxY331/WT [1]: -6.5 log2; response (normalized abundance) ([2]; parent: est. 3.0e8): 1.5e+08; other: log2 PPxY331/WT [2]: -1.1 log2; response (normalized abundance) ([3]; parent: est. 3.2e8): 8.5e+07; other: log2 PPxY331/WT [3]: -1.5 log2

B2: ALFA-tagged TXNIP (thioredoxin interacting protein), expressed in HEK293T, Q9H3M7 PPCY331AACA; PPTY375AATA (protein)
chain: B1 chain with P375A, P376A, Y378A
**Q.** How did the other: log2 PPxY/WT ([1]; volcano plot) turn out when B2 was run?
**A.** The other: log2 PPxY/WT was -6.6 log2.

**Q.** And the response (normalized abundance) ([2]; parent: est. 3.5e8)?
**A.** Its response (normalized abundance) is 150000.

**Q.** What about the other: log2 PPxY/WT ([2]; volcano plot) of the same binder?
**A.** Its other: log2 PPxY/WT is -4.5 log2.

**Q.** And the response (normalized abundance) ([3]; parent: est. 3.5e8)?
**A.** Its response (normalized abundance) is 1.6e+06.

**Q.** And the other: log2 PPxY/WT ([3]; volcano plot)?
**A.** Its other: log2 PPxY/WT is -3 log2.
